Measurements from patent US20130209454A1 (CALIFORNIA INSTITUTE OF TECHNOLOGY, published 2013).

Tests used:
Assay in all cases: cell-based or functional assay
[1] = molecular target: HIV-1 Env of strain 3016.v5.c45 (HIV-1)
[2] = molecular target: HIV-1 Env of strain C2101.c01 (HIV-1)
[3] = molecular target: HIV-1 Env of strain 1006_11_C3_1601 (HIV-1)
[4] = molecular target: HIV-1 Env of strain 3415.v1.c1 (HIV-1)
[5] = molecular target: HIV-1 Env of strain RHPA4259.7 (HIV-1)
[6] = molecular target: HIV-1 Env of strain 0815.v3.c3 (HIV-1)
[7] = molecular target: HIV-1 Env of strain 3301.v1.c24 (HIV-1)
[8] = molecular target: HIV-1 Env of strain Q769.d22 (HIV-1)
[9] = molecular target: HIV-1 Env of strain WEAU_d15_410_787 (HIV-1)
[10] = molecular target: HIV-1 Env of strain 6545.v4.cl (HIV-1)
[11] = molecular target: HIV-1 Env of strain 6540.v4.cl (HIV-1)
[12] = molecular target: HIV-1 Env of strain CAP45.2.00.G3 (HIV-1)
[13] = molecular target: HIV-1 Env of strain Du422.1 (HIV-1)
[14] = molecular target: HIV-1 Env of strain 620345.c01 (HIV-1)
[15] = molecular target: HIV-1 Env of strain T250-4 (HIV-1)
[16] = molecular target: HIV-1 Env of strain 703357.C02 (HIV-1)
[17] = molecular target: HIV-1 Env of strain CNE20 (HIV-1)
[18] = molecular target: HIV-1 Env of strain HIV-16845-2.22 (HIV-1)
[19] = molecular target: HIV-1 Env of strain THRO4156.18 (HIV-1)
[20] = molecular target: HIV-1 Env of strain 3103.v3.c10 (HIV-1)
[21] = molecular target: HIV-1 Env of strain T251-18 (HIV-1)
[22] = molecular target: HIV-1 Env of strain Ce1176_A3 (HIV-1)
[23] = molecular target: HIV-1 Env of strain T257-31 (HIV-1)
[24] = molecular target: HIV-1 Env of strain CNE58 (HIV-1)
[25] = molecular target: HIV-1 Env of strain Ce0393_C3 (HIV-1)
[26] = molecular target: HIV-1 Env of strain R1166.c01 (HIV-1)
[27] = molecular target: HIV-1 Env of strain CNE30 (HIV-1)
[28] = molecular target: HIV-1 Env of strain CNE17 (HIV-1)
[29] = molecular target: HIV-1 Env of strain X2131_C1_B5 (HIV-1)
[30] = molecular target: HIV-1 Env of strain 928-28 (HIV-1)
[31] = molecular target: HIV-1 Env of strain 6535.3 (HIV-1)
[32] = molecular target: HIV-1 Env of strain ZM53M.PB12 (HIV-1)
[33] = molecular target: HIV-1 Env of strain ZM214M.PL15 (HIV-1)
[34] = molecular target: HIV-1 Env of strain PVO.4 (HIV-1)
[35] = molecular target: HIV-1 Env of strain Ce2010_F5 (HIV-1)
[36] = molecular target: HIV-1 Env of strain P0402_c2_11 (HIV-1)
[37] = molecular target: HIV-1 Env of strain SC422661.8 (HIV-1)
[38] = molecular target: HIV-1 Env of strain 62357_14_D3_4589 (HIV-1)
[39] = molecular target: HIV-1 Env of strain Ce2060_G9 (HIV-1)
[40] = molecular target: HIV-1 Env of strain 231965.c01 (HIV-1)
[41] = molecular target: HIV-1 Env of strain TROJO4551.58 (HIV-1)
[42] = molecular target: HIV-1 Env of strain 6811.v7.c18 (HIV-1)
[43] = molecular target: HIV-1 Env of strain R2184.c04 (HIV-1)

B1: NIH45-46 IgG (antibody, V domains shown)
VH: QVRLSQSGGQMKKPGESMRLSCRASGYEFLNCPINWIRLAPGRRPEWMGWLKPRGGAVNYARKFQGRVTMTRDVYSDTAFLELRSLTSDDTAVYFCTRGKYCTARDYYNWDFEHWGRGAPVTVSS
VL: EIVLTQSPATLSLSPGETAIISCRTSQSGSLAWYQQRPGQAPRLVIYSGSTRAAGIPDRFSGSRWGADYNLSISNLESGDFGVYYCQQYEFFGQGTKVQVDI
- neutralization IC50 [1]: > 30 µg/mL
- neutralization IC50 [2]: 12.8 µg/mL
- neutralization IC50 [3]: 0.027 µg/mL
- neutralization IC50 [4]: 0.022 µg/mL
- neutralization IC50 [5]: 0.017 µg/mL
- neutralization IC50 [6]: 0.014 µg/mL
- neutralization IC50 [7]: 0.009 µg/mL
- neutralization IC50 [8]: 0.009 µg/mL
- neutralization IC50 [9]: 0.005 µg/mL
- neutralization IC50 [10]: > 50 µg/mL
- neutralization IC50 [11]: > 50 µg/mL
- neutralization IC50 [12]: > 50 µg/mL
- neutralization IC50 [13]: > 50 µg/mL
- neutralization IC50 [14]: > 50 µg/mL
- neutralization IC50 [15]: > 50 µg/mL
- neutralization IC50 [16]: 19.2 µg/mL
- neutralization IC50 [17]: 7.83 µg/mL
- neutralization IC50 [18]: 5 µg/mL
- neutralization IC50 [19]: 1.91 µg/mL
- neutralization IC50 [20]: 1.77 µg/mL
- neutralization IC50 [21]: 1.35 µg/mL
- neutralization IC50 [22]: 0.93 µg/mL
- neutralization IC50 [23]: 0.49 µg/mL
- neutralization IC50 [24]: 0.43 µg/mL
- neutralization IC50 [25]: 0.334 µg/mL
- neutralization IC50 [26]: 0.31 µg/mL
- neutralization IC50 [27]: 0.309 µg/mL
- neutralization IC50 [28]: 0.261 µg/mL
- neutralization IC50 [29]: 0.23 µg/mL
- neutralization IC50 [30]: 0.23 µg/mL
- neutralization IC50 [31]: 0.23 µg/mL
- neutralization IC50 [32]: 0.175 µg/mL
- neutralization IC50 [33]: 0.17 µg/mL
- neutralization IC50 [34]: 0.12 µg/mL
- neutralization IC50 [35]: 0.101 µg/mL
- neutralization IC50 [36]: 0.073 µg/mL
- neutralization IC50 [37]: 0.06 µg/mL
- neutralization IC50 [38]: 0.06 µg/mL
- neutralization IC50 [39]: 0.058 µg/mL
- neutralization IC50 [40]: 0.051 µg/mL
- neutralization IC50 [41]: 0.04 µg/mL
- neutralization IC50 [42]: 0.035 µg/mL
- neutralization IC50 [43]: 0.034 µg/mL
